Measured values as given in publication PMC2871463 (The Journal of Biological Chemistry, 2010).
Blank lines part the entries; values can stand above or below the binder they belong to.

Legend:
[1] = molecular target: T1, bone morphogenetic protein-1 (BMP-1), recombinant human (human, UniProt P13497-2 121-730); experiment: SPR
T1 sequence (looked up): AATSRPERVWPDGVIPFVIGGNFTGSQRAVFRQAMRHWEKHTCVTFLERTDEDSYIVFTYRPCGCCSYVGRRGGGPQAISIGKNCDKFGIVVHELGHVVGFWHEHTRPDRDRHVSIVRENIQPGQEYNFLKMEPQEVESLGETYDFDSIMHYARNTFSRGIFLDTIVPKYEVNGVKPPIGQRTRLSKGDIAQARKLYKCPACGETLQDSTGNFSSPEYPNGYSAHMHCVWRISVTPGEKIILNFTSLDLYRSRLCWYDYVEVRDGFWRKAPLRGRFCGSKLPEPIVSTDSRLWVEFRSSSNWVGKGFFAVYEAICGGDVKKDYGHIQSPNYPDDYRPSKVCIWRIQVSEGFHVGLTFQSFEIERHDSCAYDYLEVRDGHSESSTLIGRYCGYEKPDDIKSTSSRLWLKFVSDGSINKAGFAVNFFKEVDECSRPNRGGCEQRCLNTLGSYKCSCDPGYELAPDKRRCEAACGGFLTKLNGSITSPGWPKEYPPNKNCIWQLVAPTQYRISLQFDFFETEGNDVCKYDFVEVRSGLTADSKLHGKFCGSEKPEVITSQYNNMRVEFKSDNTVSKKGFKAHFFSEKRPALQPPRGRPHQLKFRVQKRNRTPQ

[2] = molecular target: T2, matrix metalloproteinase-2 (MMP-2), recombinant human (human, UniProt P08253 30-660); experiment: SPR
T2 sequence (looked up): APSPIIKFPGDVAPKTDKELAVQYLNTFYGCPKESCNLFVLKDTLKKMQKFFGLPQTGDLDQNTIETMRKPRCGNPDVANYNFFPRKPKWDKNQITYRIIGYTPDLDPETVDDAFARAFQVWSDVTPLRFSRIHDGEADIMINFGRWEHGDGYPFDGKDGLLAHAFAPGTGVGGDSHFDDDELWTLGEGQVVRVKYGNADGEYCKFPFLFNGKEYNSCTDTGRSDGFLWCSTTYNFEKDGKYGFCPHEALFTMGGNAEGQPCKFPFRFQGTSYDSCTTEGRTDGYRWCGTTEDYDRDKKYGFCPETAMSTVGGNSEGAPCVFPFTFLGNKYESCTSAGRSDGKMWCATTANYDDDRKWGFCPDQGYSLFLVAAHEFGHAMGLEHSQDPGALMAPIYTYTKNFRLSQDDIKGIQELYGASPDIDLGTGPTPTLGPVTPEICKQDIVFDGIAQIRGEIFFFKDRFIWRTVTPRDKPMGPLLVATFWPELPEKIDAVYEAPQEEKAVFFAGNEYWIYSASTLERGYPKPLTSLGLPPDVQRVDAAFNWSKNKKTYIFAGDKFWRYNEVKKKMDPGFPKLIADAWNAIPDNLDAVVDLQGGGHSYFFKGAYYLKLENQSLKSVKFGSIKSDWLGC

- KD of site 1 (two binding sites model) [1]: 129 ± 19 nM
- KD of site 2 (two binding sites model) [1]: 5200 ± 500 nM
B1: procollagen C-proteinase enhancer-1 (PCPE-1), full-length, recombinant human (natural protein, UniProt Q15113 26-449, looked up)
chain: QTPNYTRPVFLCGGDVKGESGYVASEGFPNLYPPNKECIWTITVPEGQTVSLSFRVFDLELHPACRYDALEVFAGSGTSGQRLGRFCGTFRPAPLVAPGNQVTLRMTTDEGTGGRGFLLWYSGRATSGTEHQFCGGRLEKAQGTLTTPNWPESDYPPGISCSWHIIAPPDQVIALTFEKFDLEPDTYCRYDSVSVFNGAVSDDSRRLGKFCGDAVPGSISSEGNELLVQFVSDLSVTADGFSASYKTLPRGTAKEGQGPGPKRGTEPKVKLPPKSQPPEKTEESPSAPDAPTCPKQCRRTGTLQSNFCASSLVVTATVKSMVREPGEGLAVTVSLIGAYKTGGLDLPSPPTGASLKFYVPCKQCPPMKKGVSYLLMGQVEENRGPVLPPESFVVLHRPNQDQILTNLSKRKCPSQPVRAAASQD

- Kd [2]: ≥ 1000 nM
B2: NTRshort (NTRs), short form of the netrin-like (NTR) domain of human PCPE-1 starting at Cys318 (domain or fragment, UniProt Q15113 318-449, looked up)
chain: CPKQCRRTGTLQSNFCASSLVVTATVKSMVREPGEGLAVTVSLIGAYKTGGLDLPSPPTGASLKFYVPCKQCPPMKKGVSYLLMGQVEENRGPVLPPESFVVLHRPNQDQILTNLSKRKCPSQPVRAAASQD
